Laboratory results from the supplement of paper PMC12042874.
± gives the uncertainty stated by the source.

Test: amyloid nucleation score (Sup35N fusion, yeast selection) (log enrichment); library NNK1; higher = more nucleation; inactive = no reads after selection
How it was run: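 The nucleation score is the log enrichment of output over input reads, calculated with DiMSum and centred on the mode score of non-aggregating sequences. Sequences with under 100 input reads were excluded. Reads came from Illumina sequencing of plasmid inserts from psi-negative yeast expressing Sup35N fused to peptides of 20 random codons, induced 24 hours with 100 μM copper sulfate and grown 7 days at 30°C without adenine and uracil.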

YIKWSMIRFT
amyloid nucleation score: -0.66 ± 0.46

VFLWDSHV
amyloid nucleation score: -0.505 ± 0.39

YFGKYLIWWFMSKLAV
amyloid nucleation score: -0.388 ± 0.29

FTESCRRGI
amyloid nucleation score: 0.053 ± 0.4

LVNGTMFINPCYVQGRCKEM
amyloid nucleation score: 2.27 ± 0.12

NSYKNYCVLCECRC
amyloid nucleation score: 4.21 ± 0.07

HWSMCRTGFWSLYKMDVTQT
amyloid nucleation score: 0.833 ± 0.7

YGSMVMDVEAR
amyloid nucleation score: -0.001 ± 0.45

CNNSSGRVVRLCSMDGGLLG
amyloid nucleation score: -0.021 ± 0.65

DRVSCNEEFQRKCIFTVIRR
amyloid nucleation score: 1.19 ± 0.63

SGIPSVLATGYSYKF
amyloid nucleation score: -0.273 ± 0.29

TVSDHPSFFCVYCADSSVGM
amyloid nucleation score: 7.439 ± 0.073

TINWEPRFRVLHSPIYRGCY
amyloid nucleation score: inactive

NCCGSLETSSVSVVYLMWGW
amyloid nucleation score: 5.917 ± 0.05

DLVYC
amyloid nucleation score: -0.307 ± 0.52

KWSWGGPRDMIFKDTLAGAR
amyloid nucleation score: inactive

MFYLTFYNLRIND
amyloid nucleation score: 6.01 ± 0.061

WASMIHVEFYSNYFL
amyloid nucleation score: -0.017 ± 0.72

FGYNFRPHHCGCTRNLNSQM
amyloid nucleation score: 0.115 ± 0.29

SCSVSNGVFCNHGRGCGFRL
amyloid nucleation score: 2.12 ± 0.18

FPNALDYLYVV
amyloid nucleation score: -0.243 ± 0.22

MVRYLGYYLPNWRSFHWHRL
amyloid nucleation score: 0.951 ± 0.44

LNTGCDANQILAVCSRGVGV
amyloid nucleation score: 0.793 ± 0.43

WFDELGRDFLV
amyloid nucleation score: -0.193 ± 1.6

HTHSGVYC
amyloid nucleation score: -0.468 ± 0.5

SRFKPWGGSFVGYCVLYGRL
amyloid nucleation score: -1.01 ± 0.71

NGKEDKTCLWSVQPYCKSCE
amyloid nucleation score: -0.475 ± 1.2

SDFLTWCDQSLRCVDRYPNA
amyloid nucleation score: 0.648 ± 0.97

LQFNSLAVLGVPGEMNEQTG
amyloid nucleation score: -0.228 ± 0.58

VLDGNKLQSRSLSCSSWYLS
amyloid nucleation score: 4.03 ± 0.12

VDCPIECTAAGRSHDSGV
amyloid nucleation score: 1.42 ± 0.63

AGCVPMGEGLGTLESNYSKY
amyloid nucleation score: 0.637 ± 0.52

LLRCPYLNFGASMYLIRFCS
amyloid nucleation score: 0.404 ± 0.53

SQCSSLIHAIEMDRFVF
amyloid nucleation score: 0.276 ± 0.23

QFVQAGRKLGNNVDGWKYVC
amyloid nucleation score: -0.997 ± 0.5

YNYSRYIRERFWFYT
amyloid nucleation score: 0.115 ± 0.38

TAALFLAMLGDYVVSNMWTT
amyloid nucleation score: inactive

HAWVVVGRRGGKGLEAWCPV
amyloid nucleation score: -0.71 ± 0.81

RFVIVEVSWLDSLLRLSWED
amyloid nucleation score: 0.277 ± 0.99

RHKYMWM
amyloid nucleation score: 1.46 ± 0.81

FKTYYLATLDTNS
amyloid nucleation score: -1.73 ± 2.4

IGLAICNLLFSTGWGYQPLW
amyloid nucleation score: 5.75 ± 0.083

NESEFLFSKAHRMVVIP
amyloid nucleation score: inactive

EGLTNMWGGSYYNGLTFMGQ
amyloid nucleation score: -0.754 ± 0.54

YGGISMLLCRSVWRFNRQYI
amyloid nucleation score: 0.547 ± 0.76

LYHSTLYLNVCYTYHSAGGN
amyloid nucleation score: 1.24 ± 0.21

RFRVEGPMYFICICKRLFTY
amyloid nucleation score: -0.555 ± 0.44

GFFYEWRVYCPAWINALWWH
amyloid nucleation score: 0.193 ± 0.77

EPIYCFCDCNGSRWALYVSV
amyloid nucleation score: 0.421 ± 0.54

FRLEGRCSLLFCTCRLDV
amyloid nucleation score: 0.561 ± 0.45

WSTCLCGYCCVI
amyloid nucleation score: 1.31 ± 0.2

CTSLDFSNKVRCVMGQSVLL
amyloid nucleation score: -0.606 ± 0.97

KLYWTYLTPGTNSGLQSPDS
amyloid nucleation score: -0.288 ± 0.62

QFVMINYSSSNVASPNLLRI
amyloid nucleation score: 0.94 ± 0.3

YHVYSVRSNVWALLKIRLV
amyloid nucleation score: 1.14 ± 0.58

AVFGRLMVVDVYVSRSALTS
amyloid nucleation score: 0.043 ± 0.94

WVVISMSVRHVLACNLLPIR
amyloid nucleation score: -0.013 ± 0.76

ITKGAPSLYYMCRRGEDACS
amyloid nucleation score: 0.523 ± 0.44

SRVFLCCAMCLRRNSGYGR
amyloid nucleation score: -0.362 ± 0.4

SIFLCVSLSVTCETILAGLD
amyloid nucleation score: 2.8 ± 0.16

SDYFYSGKGFFLAMGLSMSR
amyloid nucleation score: -1.5 ± 1.8

LGRSENDI
amyloid nucleation score: 1.19 ± 0.4

TRCIAVFIGD
amyloid nucleation score: 2.52 ± 0.11

KRARGDFYILEWQSDLDNLG
amyloid nucleation score: -0.755 ± 0.67

ILFCYLYFMLNNFT
amyloid nucleation score: 1.07 ± 0.14

AGIKIGKEKGCHNYRFWWTV
amyloid nucleation score: 0.124 ± 0.5

VSCSDSMAFPSKSCF
amyloid nucleation score: 0.712 ± 0.34

GTSESLGYYSVLRMDIYFGS
amyloid nucleation score: inactive

LINDRPPSSAMERRNVATSS
amyloid nucleation score: 0.096 ± 0.57

VYGVPWYGLSYLFCTSVDID
amyloid nucleation score: 6.252 ± 0.059

HVVAALWCARNFWGVLNVCC
amyloid nucleation score: -0.09 ± 0.53

VFHNYFLRTYTNRRARSVSI
amyloid nucleation score: 2.86 ± 0.14

YFYDLSRCLFIHCTVGSQIL
amyloid nucleation score: 7.769 ± 0.044

YFRRCFDRCVMSRLRPI
amyloid nucleation score: -0.793 ± 0.61

CELSDSVNGNTFNMN
amyloid nucleation score: 2.18 ± 0.49

LCCRLMTTICPKLCSVLLMS
amyloid nucleation score: 0.217 ± 0.28

DMSIKFCEPDFLLRNEQHNL
amyloid nucleation score: 0.382 ± 0.3

VLGYAFYCYLCRNLRRNNFS
amyloid nucleation score: 0.864 ± 0.53

GGILPLTCSFVRTSIDQIGG
amyloid nucleation score: -0.154 ± 0.41

LLRGTIFVNDRVTID
amyloid nucleation score: 0.973 ± 0.59

LYRRGTRPPG
amyloid nucleation score: -1.28 ± 2.4

LAMFHSWGVGFATLGVKISE
amyloid nucleation score: 1.04 ± 0.78

LDSDGVASYDTRMSIRWYIE
amyloid nucleation score: 2 ± 0.49

RSFWYDHGIRVGLRLYNCSM
amyloid nucleation score: inactive

TDQCGWGTVRRSAETSLGQL
amyloid nucleation score: 0.77 ± 0.78

MSCYLQAFDITTTTNDASWW
amyloid nucleation score: -0.95 ± 1.6

ARFMSLTRSSACETNVGVYL
amyloid nucleation score: 0.608 ± 0.32

TICNMSRWYDMKNYGEKMEV
amyloid nucleation score: 1.21 ± 0.6

AFYLLF
amyloid nucleation score: -0.395 ± 0.51

SNGCPFDTIDQAKVGTVV
amyloid nucleation score: 0.861 ± 0.68

CRLSTS
amyloid nucleation score: -0.966 ± 0.42

HCFPCLVVIV
amyloid nucleation score: 0.121 ± 0.36

WIILVHGGGKRLSVNIHLLC
amyloid nucleation score: -0.713 ± 0.32

MFIASGV
amyloid nucleation score: -1.65 ± 0.84

LPCHLPRLVPKGYPSFTLYK
amyloid nucleation score: -0.672 ± 0.4

SIGWYTQGRYVGMCHRN
amyloid nucleation score: 0.251 ± 0.53

LTFCCIMYSIYHSQPDFCGL
amyloid nucleation score: 2.37 ± 0.099

THDAFF
amyloid nucleation score: 0.642 ± 0.48

FSASFNGLAAGRLASR
amyloid nucleation score: -0.105 ± 1.3

HYWDYAISRIR
amyloid nucleation score: -1.94 ± 2.4

REEAVSVGHSRFGFWIVFGG
amyloid nucleation score: -0.264 ± 0.36

QVFKHGSPGHMLALCQRAV
amyloid nucleation score: 1.39 ± 0.63

GMALKLFCALT
amyloid nucleation score: 0.078 ± 0.89

YSNLSCSQTDVRSLR
amyloid nucleation score: 0.494 ± 0.49

LLWISRTRPYWLLFSVWKLA
amyloid nucleation score: -0.107 ± 0.9

AKLYMCSCINCTASHEITYF
amyloid nucleation score: 8.419 ± 0.045

INLCAFGLPLVKVLHWLLYL
amyloid nucleation score: inactive

GMRVRNRFVVSDSSYPPASH
amyloid nucleation score: -0.024 ± 0.26

YVDLFIMPIACGTSVMHLNL
amyloid nucleation score: 5.464 ± 0.047

IWLSQYDHGNCVTYSQANYM
amyloid nucleation score: 0.412 ± 0.85

SLRYSLCRL
amyloid nucleation score: 0.328 ± 0.24

VSVTLLFFTVPIQGRVMQFS
amyloid nucleation score: 0.148 ± 0.29

VIMCYR
amyloid nucleation score: -0.309 ± 0.29

YTRRVTNDVNNFGTFTRMSS
amyloid nucleation score: 1.02 ± 0.27

LVLSWSWICFL
amyloid nucleation score: 7.39 ± 0.059

LYRFNF
amyloid nucleation score: 0.223 ± 0.45

SPAFQWHLYPSA
amyloid nucleation score: 0.592 ± 0.87

RRSWVFFVDWFIFVCLCVNG
amyloid nucleation score: inactive

NIHSEAPISPSMPGLREVTA
amyloid nucleation score: 0.219 ± 0.32

IRGNSKGMGQREFISPFPAR
amyloid nucleation score: -1 ± 0.35

DSLSGSICGFRLYALLFTLT
amyloid nucleation score: -0.113 ± 0.53

MRQWSGQG
amyloid nucleation score: 0.758 ± 1

SLVASNSQL
amyloid nucleation score: 0.06 ± 0.45

RIYLRFYLIIR
amyloid nucleation score: 1.07 ± 0.85

YHANICSKFSSLYSNL
amyloid nucleation score: 1.01 ± 0.93

SKETAFGLSL
amyloid nucleation score: -0.368 ± 0.54

FVGNPSRRWLCHCKFIAGGH
amyloid nucleation score: 0.137 ± 0.38

GAYLLPLSIWNLGPSNGR
amyloid nucleation score: 0.132 ± 0.44

CCDSPSRRSRAKECRMKYSM
amyloid nucleation score: -1.32 ± 1.2

VLPLQKPRDVGSVISARQWG
amyloid nucleation score: 0.837 ± 0.53

RCTGLRLRVLGAILIFIHYV
amyloid nucleation score: inactive

PSYHGYLGLSNPVRYRMCV
amyloid nucleation score: 0.197 ± 0.28

NLLYTY
amyloid nucleation score: 1 ± 0.53

RLYNLTSVRKFVLLSSM
amyloid nucleation score: 0.235 ± 0.4

LSWFC
amyloid nucleation score: -0.504 ± 0.43

YGLDPHSAAEALLVRPNTGR
amyloid nucleation score: -0.18 ± 0.41

DLRSPRNS
amyloid nucleation score: inactive

SHCCR
amyloid nucleation score: inactive

VRGVSVGSYKSVAELGGTQT
amyloid nucleation score: -0.449 ± 1.3

DWRYPLAYPVFSIDSRMFD
amyloid nucleation score: -0.312 ± 0.46

VGLLKAAEDGVLRIGVRRSW
amyloid nucleation score: 0.631 ± 0.8

LWSLVCSELCWDVLFNALPG
amyloid nucleation score: -1.03 ± 0.71

GGTNAGRCMYGGRDI
amyloid nucleation score: 0.754 ± 0.7

SLVWVCFWGICI
amyloid nucleation score: 6.67 ± 0.088

LGSRFMRV
amyloid nucleation score: 0.635 ± 1.2

VFSLYSTQKLSRRVIGMLGL
amyloid nucleation score: 0.725 ± 0.81

SGDCVL
amyloid nucleation score: 1.43 ± 0.26

LSSLGDLLLMNQPNAQRLTY
amyloid nucleation score: -0.746 ± 1

VLSEVDWLSIFHGWMFGVRC
amyloid nucleation score: 0.434 ± 1.4

CMSVETLTEMVYFKSYTL
amyloid nucleation score: 0.257 ± 0.42

DLFCFELVDHTLLLGWTTVQ
amyloid nucleation score: -0.564 ± 0.66

GAPLTENKFVLRNFVMGSAL
amyloid nucleation score: 0.159 ± 0.77

SFIELMMASRLF
amyloid nucleation score: 0.367 ± 0.35

PCKSCGLKFTRW
amyloid nucleation score: 0.235 ± 0.39

ITVRATR
amyloid nucleation score: -0.97 ± 1.7

SRLYVCFALSSLSISRNNYG
amyloid nucleation score: 3.11 ± 0.22

ASKKNIF
amyloid nucleation score: -0.304 ± 0.79

ENDVSQPVRLTVVTRWSWYT
amyloid nucleation score: 0.229 ± 0.53

LTFRRRYRWGQGTCINFCRR
amyloid nucleation score: 0.082 ± 0.67

PFYLDSGADVTEPGHLGFYG
amyloid nucleation score: 0.158 ± 0.37

QRFQAGPCRFSE
amyloid nucleation score: -0.394 ± 0.95

RCYFAWPEWLGYGCVVMERG
amyloid nucleation score: -0.435 ± 0.52

TFYEHMVCGRHQSQAVWLVK
amyloid nucleation score: 0.169 ± 0.6

TWEFRYNFFYNVPRLQTYKI
amyloid nucleation score: -0.169 ± 0.42

DSDLRLNLCELTFVPWRRSG
amyloid nucleation score: 2.86 ± 0.19

FDHSIVKKSQLRGFTVVLRL
amyloid nucleation score: 1.22 ± 0.35

LTDLLMFIVPWDNAQRLVCF
amyloid nucleation score: 0.518 ± 0.89

SNVDSWFGRVTSA
amyloid nucleation score: -0.698 ± 0.33

WRMRYKC
amyloid nucleation score: -0.338 ± 1.2

TWTCDSVCCVRNKEVCGVYQ
amyloid nucleation score: 0.033 ± 0.23

HMNSVVMPRWPTLNGELGSR
amyloid nucleation score: -0.179 ± 0.4

FLHNSWTGGGGTYGICKMRV
amyloid nucleation score: -0.368 ± 0.65
